Assay results from patent publication US20230212285A1 (published 2023).
Changes are numbered by the printed parent chain. Where two headings read alike, the source gives them in different places. Each block holds one binder with its values, some of them ahead of it.

What was measured:
[1] = target: cynomolgus C-KIT on stably transfected CHO-K1 cells (cynomolgus monkey); test: cell-based or functional assay
[2] = target: T1, cynomolgus monkey C-KIT-Fc protein (cynomolgus monkey); test: direct ELISA, IgG at 1 µg/ml
T1 construct: also called cyno C-KIT-Fc; cyno C-KIT

[3] = target: T1, cynomolgus monkey C-KIT-Fc protein; test: HTRF competition vs terbium-labelled h37M IgG1
[4] = target: T1, cynomolgus monkey C-KIT-Fc protein; test: HTRF competition vs terbium-labelled h37M IgG1; remark: listed apart in the source
human FcγRI, His6-tagged = target: T2, human FcγRI, His6-tagged (human, UniProt P12314 16-288); test: SPR, 1:1 kinetic
T2 construct: also called FcG RI
Method: (§1) Interaction affinities for IgGs were determined by surface plasmon resonance using a BIACORE® T200 instrument. For most analyses, His6-tagged FcγRI, FcγRIIa (167R and 167H variants), FcγRIIb, FcγRIIIa (176F and 176 V variants), and FcγRIIIb receptors (all Sino Biological) were captured on a CM5 sensor chip coated with an anti-HIS antibody by standard amine coupling. Receptor-specific formats of analyses were then applied, as below.
Regeneration with 2× injections glycine pH 1.5 and analysis using 1:1 fit.

[5] = target: T3, human FcγRIIa 167H variant, His6-tagged (human, UniProt P12318 34-218); test: SPR, steady state
T3 construct: also called FcG RIIa (167H)
T3 sequence (looked up): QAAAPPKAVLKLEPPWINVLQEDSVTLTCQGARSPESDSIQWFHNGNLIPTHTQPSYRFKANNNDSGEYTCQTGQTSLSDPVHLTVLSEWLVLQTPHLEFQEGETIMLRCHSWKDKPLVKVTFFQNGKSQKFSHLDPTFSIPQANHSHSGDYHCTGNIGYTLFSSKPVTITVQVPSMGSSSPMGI
Method: as §1

[6] = target: T4, human FcγRIIb, His6-tagged (human, UniProt P31994 43-217); test: SPR, steady state
T4 construct: also called FcG RIIb
T4 sequence (looked up): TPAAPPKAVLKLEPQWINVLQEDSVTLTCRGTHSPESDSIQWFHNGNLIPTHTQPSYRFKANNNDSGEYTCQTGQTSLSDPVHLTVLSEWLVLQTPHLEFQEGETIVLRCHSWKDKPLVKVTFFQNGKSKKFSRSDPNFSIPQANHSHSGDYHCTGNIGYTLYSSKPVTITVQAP
Method: as §1

[7] = target: T5, human FcγRIIIa 176F variant, His6-tagged (human, UniProt P08637 17-208); test: SPR, steady state
T5 construct: also called FcG RIIIa (176F)
Method: as §1

[8] = target: T6, human FcγRIIIa 176V variant, His6-tagged (human, UniProt P08637 17-208); test: SPR, steady state
T6 construct: also called FcG RIIIa (176V)
Method: as §1

[9] = target: T7, human FcγRIIIb, His6-tagged (human, UniProt O75015 17-200); test: SPR, steady state
T7 construct: also called FcG RIIIb
Method: as §1

[10] = target: T8, human FcγRIIa 167R variant, His6-tagged (human, UniProt P12318 34-218); test: SPR, steady state
T8 construct: also called FcG RIIa (167R)
T8 sequence (looked up): T3 sequence (looked up) with H134R
Method: as §1

human FcRn = target: T9, human FcRn (human, UniProt P55899 24-297, limits assumed); test: SPR, steady state, pH 6
T9 construct: also called hFcRn
Method: The interactions between monomeric IgG and FcRn are relatively low affinity and pH-sensitive interactions, so ‘steady state’ affinity analyses were performed under the following conditions: A CM5 chip was directly coupled with hFcRn in sodium acetate pH 5.5 using standard amine chemistry. Running buffer was PBS 0.05% P20+150 mM NaCl (pH 6.0 or pH 7.4), flow rate 30 μl/min, 5 point three-fold dilutions of purified antibodies from 3000 nM to 37.0 nM applied with an association time of 18s, dissociation time 100 s.

T9 sequence (P55899 24-297 limits assumed, form in doubt): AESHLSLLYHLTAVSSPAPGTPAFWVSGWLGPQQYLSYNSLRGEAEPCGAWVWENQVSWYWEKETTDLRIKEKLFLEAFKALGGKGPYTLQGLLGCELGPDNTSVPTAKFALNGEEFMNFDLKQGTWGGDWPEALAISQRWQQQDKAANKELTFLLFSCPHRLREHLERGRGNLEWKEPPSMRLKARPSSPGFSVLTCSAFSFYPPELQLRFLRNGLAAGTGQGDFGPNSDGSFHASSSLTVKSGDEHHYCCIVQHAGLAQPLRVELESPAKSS
T2 sequence (P12314 16-288 limits assumed): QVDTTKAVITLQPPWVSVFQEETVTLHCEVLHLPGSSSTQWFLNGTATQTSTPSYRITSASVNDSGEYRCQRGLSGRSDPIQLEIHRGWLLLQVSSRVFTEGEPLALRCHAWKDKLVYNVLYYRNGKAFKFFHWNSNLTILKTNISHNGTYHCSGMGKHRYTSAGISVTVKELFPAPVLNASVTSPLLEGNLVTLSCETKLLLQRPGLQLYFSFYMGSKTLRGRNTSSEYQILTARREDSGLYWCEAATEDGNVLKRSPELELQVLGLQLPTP
T6 sequence (P08637 other isoform, or with tags, fused parts or gaps mutant limits assumed): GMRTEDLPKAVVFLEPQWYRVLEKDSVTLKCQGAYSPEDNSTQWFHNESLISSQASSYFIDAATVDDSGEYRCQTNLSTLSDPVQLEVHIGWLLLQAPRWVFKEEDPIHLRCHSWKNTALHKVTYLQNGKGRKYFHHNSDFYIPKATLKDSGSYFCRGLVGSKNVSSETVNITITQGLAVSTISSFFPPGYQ
T5 sequence (P08637 17-208 limits assumed, change not shown): as the sequence (P08637 other isoform, or with tags, fused parts or gaps mutant limits assumed) above, with V160F counted along it
T7 sequence (O75015 17-200 limits assumed): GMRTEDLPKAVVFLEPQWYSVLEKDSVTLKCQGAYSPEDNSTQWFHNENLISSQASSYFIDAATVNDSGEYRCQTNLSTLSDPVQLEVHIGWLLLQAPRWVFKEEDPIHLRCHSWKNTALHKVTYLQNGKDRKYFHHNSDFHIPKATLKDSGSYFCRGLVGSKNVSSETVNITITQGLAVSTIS

- IC50 [4]: 2.74 µg/mL
B8: MH5.24 (antibody, human IgG1, V domains shown)
VH: QVQLVQSGAEVKKPGASVKVSCKASGYTFTDFYMNWVRQAPGQGLEWMGRIYPASGNTYYAQKFQGRVTMTRDTSTSTVYMELSSLRSEDTAVYYCARGVWYFDTWGQGTLVTVSS
VL: DIQMTQSPSSLSASVGDRVTITCRASQGIRTNLAWFQQKPGKAPKSLIYAASSLQSGVPSRFSGSGSGTDFTLTISSLQPEDFATYYCQQYANYPRTFGGGTKVEIK
notes: graft frameworks; substitutions derived; human IgG1; also called C-KIT-MH5.24

- IC50 [4]: 0.254 µg/mL
B10: MH5.2 (antibody, human IgG1, V domains shown)
VH: B8 VH with A54G, S55T, F103Y, T105Y
VL: B8 VL
notes: graft frameworks; substitutions derived; human IgG1; also called C-KIT-MH5.2

- IC50 [4]: 0.785 µg/mL
B11: MH5.35 (antibody, human IgG1, V domains shown)
VH: B8 VH with D31N, F32Y
VL: B8 VL
notes: graft frameworks; substitutions derived; human IgG1; also called C-KIT-MH5.35

- IC50 [4]: 0.532 µg/mL
B17: MH5.34 (antibody, human IgG1, V domains shown)
VH: B8 VH with D31N, F32Y, T105S
VL: B8 VL
notes: graft frameworks; substitutions derived; human IgG1; also called C-KIT-MH5.34

- IC50 [3]: 0.101 µg/mL
B18: MH11 (antibody, human IgG1, V domains shown)
VH: B8 VH with F32Y, A54G, W101Y, F103Y, T105Y
VL: B8 VL with A92N, N93A
notes: graft frameworks; substitutions derived; human IgG1; also called C-KIT-MH11

- IC50 [4]: 3.26 µg/mL
B19: MH5.23 (antibody, human IgG1, V domains shown)
VH: B8 VH with T105S
VL: B8 VL
notes: graft frameworks; substitutions derived; human IgG1; also called C-KIT-MH5.23

- Kd (human FcγRI, His6-tagged): 1.06 nM
- Kd [5]: 512 nM
- Kd [6]: 1440 nM
- Kd [7]: 82 nM
- Kd [8]: 41.1 nM
- Kd [9]: 249 nM
- Kd [10]: 447 nM
- Kd (human FcRn): 1240 nM
- OD450 nm [2]: > 2 OD450 nm
- IC50 [3]: 0.035 µg/mL
- IC50 [4]: 0.036 µg/mL
B21: h37M IgG1 (antibody)
heavy: not shown
VL: DIVMTQSPSSLSASVGDRVTITCKASQNVRTNVAWYQQKPGKAPKALIYSASYRYSGVPDRFTGSGSGTDFTLTISSLQPEDFADYFCQQYNSYPRTFGGGTKVEIK
notes: Humanized 37M, human IgG1; Terbium-labelled as tracer in HTRF; also called C-KIT-h37M; IgG1-h37M; copies: 2 + 2

The next lines start with the binder.

B1: MH1 IgG1-3M (antibody, V domains shown)
VH: B8 VH with F32Y, A54G, W101Y, F103Y, T105Y
VL: B8 VL with A92N, N93S
- Cyno C-KIT CHO FabZAP IC50 (pM) [1]: 14 pM

B2: E-C7 (antibody, human IgG1, V domains shown)
VH: B8 VH with F32Y, A54G, W101Y, F103Y, T105Y
VL: B8 VL with A50S, A92N, N93S
notes: human IgG1; also called C-KIT-E-C7
- OD450 nm [2]: > 2 OD450 nm
- IC50 [3]: 0.051 µg/mL

B3: MH5.22 (antibody, human IgG1, V domains shown)
VH: B8 VH with F103Y, T105Y
VL: B8 VL
notes: graft frameworks; substitutions derived; human IgG1; also called C-KIT-MH5.22
- OD450 nm [2]: > 2 OD450 nm
- IC50 [4]: 0.164 µg/mL

B4: MH5-DI IgG1-3M (antibody, V domains shown)
VH: B8 VH with F32Y, A54G, W101Y, F103Y, T105Y
VL: B8 VL
- Cyno C-KIT CHO FabZAP IC50 (pM) [1]: 13.5 pM

B5: D-A10 (antibody, human IgG1, V domains shown)
VH: B8 VH with F32Y, A54G, W101Y
VL: B8 VL with I29V, L54R, A92N, N93S
notes: graft frameworks; substitutions derived; human IgG1; also called C-KIT-D-A10
- IC50 [3]: 0.059 µg/mL

B6: E-C2 (antibody, human IgG1, V domains shown)
VH: B8 VH with F32Y, A54G, W101Y, F103L, T105Y
VL: B8 VL with L33V, F36L, A50S, S53Y, L54R, A92N, N93S
notes: human IgG1; also called C-KIT-E-C2
- OD450 nm [2]: > 2 OD450 nm

B7: MH1 IgG1 (antibody, V domains shown)
VH: B8 VH with F32Y, A54G, W101Y, F103Y, T105Y
VL: B8 VL with A92N, N93S
notes: human IgG1; also called IgG1-MH1; C-KIT-MH1
- OD450 nm [2]: > 2 OD450 nm

B9: C-A7 (antibody, human IgG1, V domains shown)
VH: B8 VH with F32Y, M48I, A54G, W101Y, T105S
VL: B8 VL with I29V, T31N, L33V, A50Y, A92N, N93S
notes: graft frameworks; substitutions derived; human IgG1; also called C-KIT-C-A7
- IC50 [3]: 0.081 µg/mL

B12: MH5 IgG1 (antibody, V domains shown)
VH: B8 VH with F32Y, A54G, W101Y, F103Y, T105Y
VL: B8 VL with A50S
notes: human IgG1; also called C-KIT-MH5
- OD450 nm [2]: > 2 OD450 nm
- IC50 [3]: 0.036 µg/mL
- IC50 [4]: 0.058 µg/mL

B13: F-C5 (antibody, human IgG1, V domains shown)
VH: B8 VH with F32Y, A54G, W101Y, T105E
VL: B8 VL with I29V, L54R, A92N, N93S
notes: human IgG1; also called C-KIT-F-C5
- IC50 [3]: 0.079 µg/mL

B14: F-F2 (antibody, human IgG1, V domains shown)
VH: B8 VH with F32Y, A54G, W101Y, F103Q, T105Y
VL: B8 VL with I29V, L33V, L54R, A92N, N93S
notes: graft frameworks; substitutions derived; human IgG1; also called C-KIT-F-F2
- IC50 [3]: 0.121 µg/mL

B15: E-E10 (antibody, human IgG1, V domains shown)
VH: B8 VH with F32Y, A54G, T105Y
VL: B8 VL with I29V, L33V, A50S, A92N, N93S
notes: graft frameworks; substitutions derived; human IgG1; also called C-KIT-E-E10
- IC50 [3]: 0.097 µg/mL

B16: MH5.1 (antibody, human IgG1, V domains shown)
VH: B8 VH with D31N, F32Y, A54G, S55T, F103Y, T105Y
VL: B8 VL
notes: graft frameworks; substitutions derived; human IgG1; also called C-KIT-MH5.1
- IC50 [4]: 0.633 µg/mL

B20: C-B12 (antibody, human IgG1, V domains shown)
VH: B8 VH with F32Y, A54G, W101Y, Y102E, T105Y
VL: B8 VL with I29V, T31N, S53Y, L54R, A92N, N93S
notes: graft frameworks; substitutions derived; human IgG1; also called C-KIT-C-B12
- IC50 [3]: 0.166 µg/mL
